The record followed here is US20110059084A1 (BIOTEST, published 2011).

The target in this test is T1, CD4 on primary human peripheral lymphocytes (human, UniProt P01730 26-458).
T1 construct: whole, on cells; also called human lymphocytes
In words: flow cytometry on human PBMCs (CD3+ lymphocytes), MFI over serial dilutions of BT061. The method, then: Human PBMCs were isolated by density gradient centrifugation and stained with FITC-labelled anti-CD3 antibody (345763; Becton/Dickinson) and serial dilutions of BT061. BT061 binding was detected with an phycoerythrin labelled human IgG antibody (109-116-098; Jackson, Immunoresearch). By flow cytometric analysis the mean fluorescence intensity of CD3+ BT061 binding lymphocytes was determined.
(In general: Flow cytometry measures light scatter and fluorescence of single cells or particles in a stream.)

B1: humanized B-F5 H37L/L4M IgG1 (BT061) (antibody, V domains shown)
VH: EEQLVESGGGLVKPGGSLRLSCAASGFSFSDCRMYWLRQAPGKGLEWIGVISVKSENYGANYAESVRGRFTISRDDSKNTVYLQMNSLKTEDTAVYYCSASYYRYDVGAWFAYWGQGTLVTVSS
VL: DIVMTQSPDSLAVSLGERATINCRASKSVSTSGYSYIYWYQQKPGQPPKLLIYLASILESGVPDRFSGSGSGTDFTLTISSLQAEDVAVYYCQHSRELPWTFGQGTKVEIK
notes: also called hB-F5; humanised B-F5
For the molecule B1, the EC50 (usually the midpoint of the concentration-response curve) is below 0.01 mg/L.
